This is an account of results in patent publication US20190083585.

One data set concerns the target T1, Suc-APR-pNA.
T1 chain: APR

Data set [1] deals with T2, fluorescently quenched α-gliadin hexapeptide analogue QXL520-PQPQLP-K(5-FAM)-NH2.
T2 chain: PQPQLP

The next data set deals with T3, Suc-APE-pNA.
T3 chain: APE

Another data set has as its target T4, Suc-APQ-pNA.
T4 chain: APQ

For data set [2], the target named is T5, immunodominant α9-gliadin peptide QLQPFPQPQLPY
T5 chain: QLQPFPQPQLPY

Substitutions are numbered along the chain they refer to. In names and notes the source's numbering stands.

B1: Kumamolisin-As (wild type) (protein)
chain: AAPTAYTPLDVAQAYQFPEGLDGQGQCIAIIELGGGYDEASLAQYFASLGVPAPQVVSVSVDGASNQPTGDPSGPDGEVELDIEVAGALAPGAKFAVYFAPNTDAGFLDAITTAIHDPTLKPSVVSISWGGPEDSWTSAAIAAMNRAFLDAAALGVTVLAAAGDSGSTDGEQDGLYHVDFPAASPYVLACGGTRLVASGGRIAQETVWNDGPDGGATGGGVSRIFPLPAWQEHANVPPSANPGASSGRGVPDLAGNADPATGYEVVIDGEATVIGGTSAVAPLFAALVARINQKLGKAVGYLNPTLYQLPADVFHDITEGNNDIANRAQIYQAGPGWDPCTGLGSPIGVRLLQALLPSASQPQPGSTENLYFQSGALEHHHHHH
With B1, the Catalytic Efficiency (kcat/KM) with Suc-APR-pNA worked out at 132 M⁻¹ s⁻¹; in data set [1] it was 4.9 M⁻¹ s⁻¹; in the data set with Suc-APE-pNA it was 4 M⁻¹ s⁻¹. For the same protein, the Fold Change in Activity of PQ Hydrolysis Relative to Wild Type Kumamolysin-As in data set [1] was 1 fold.

B2: Kumamolisin-As S262K, D293N, N291D, G319S, D358G, D368H (protein)
chain: B1 chain with S73K, N102D, D104N, G130S, D169G, D179H
In data set [1], B2 registered a Fold Change in Activity of PQ Hydrolysis Relative to Wild Type Kumamolysin-As of 62 fold.

B3: Kumamolisin-As D358G, D368H (protein)
chain: B1 chain with D169G, D179H
In the case of B3, the Fold Change in Activity of PQ Hydrolysis Relative to Wild Type Kumamolysin-As in data set [1] was found to be 6 fold.

B4: Kumamolisin-As T357A (protein)
chain: B1 chain with T168A
For the protein B4, the Fold Change in Activity of PQ Hydrolysis Relative to Wild Type Kumamolysin-As in data set [1] came to 2 fold.

B5: Kumamolisin-As N291D, G319S, D358G, D368H (protein)
chain: B1 chain with N102D, G130S, D169G, D179H
Take B5: the Fold Change in Activity of PQ Hydrolysis Relative to Wild Type Kumamolysin-As in data set [1] is 93 fold.

B6: Kumamolisin-As D293A (protein)
chain: B1 chain with D104A
Regarding B6, the Fold Change in Activity of PQ Hydrolysis Relative to Wild Type Kumamolysin-As in data set [1] is 3 fold.

B7: Kumamolisin-As N291D, D293A, G319S, S354N, D358G, Q361D, D368H (protein)
chain: B1 chain with N102D, D104A, G130S, S165N, D169G, Q172D, D179H
Consider B7, for which the Fold Change in Activity of PQ Hydrolysis Relative to Wild Type Kumamolysin-As in data set [1] came to 58 fold.

B8: Kumamolisin-As D293T, N291D, G319S, D358G, D368H (protein)
chain: B1 chain with N102D, D104T, G130S, D169G, D179H
Consider B8, for which, in data set [1], the Fold Change in Activity of PQ Hydrolysis Relative to Wild Type Kumamolysin-As was found to be 58 fold.

B9: KumaMax™ (Kumamolisin-As V119D, S262K, N291D, D293T, G319S, D358G, D368H) (protein)
chain: B1 chain with S73K, N102D, D104T, G130S, D169G, D179H
In the data set with Suc-APQ-pNA, B9 displayed a Catalytic Efficiency (kcat/KM) of 6.7 M⁻¹ s⁻¹. In data set [1], the Catalytic Efficiency (kcat/KM) turned out to be 568 M⁻¹ s⁻¹ and the Fold Change in Activity of PQ Hydrolysis Relative to Wild Type Kumamolysin-As came out at 120 fold. In the data set with Suc-APE-pNA, the Catalytic Efficiency (kcat/KM) was found to be 1.4 M⁻¹ s⁻¹ and the “fold decrease in activity compared to its activity on the PQ substrate” value is given as “roughly 5-fold decrease in activity on the PE peptide substrate compared to its activity on the PQ substrate”. Moreover, in data set [2], the “fraction of immunogenic peptide proteolyzed after 50 minutes (LC-MS, pH 4, 37° C.)” value is reported as “over 95% of the immunogenic peptide had been proteolyzed after a 50 minute incubation” and the “half-life of the peptide in the presence of KumaMax” value stood at 8.5 ± 0.7 min.

B10: Kumamolisin-As D358N (protein)
chain: B1 chain with D169N
For B10, in data set [1], the Fold Change in Activity of PQ Hydrolysis Relative to Wild Type Kumamolysin-As is 4 fold.

B11: Kumamolisin-As G319S, D358G, D368H (protein)
chain: B1 chain with G130S, D169G, D179H
On to B11, for which, in data set [1], the Fold Change in Activity of PQ Hydrolysis Relative to Wild Type Kumamolysin-As was 7 fold.

B12: Kumamolisin-As N291D, G319S, S354N, D358G, D368H (protein)
chain: B1 chain with N102D, G130S, S165N, D169G, D179H
As for B12, in data set [1], the Fold Change in Activity of PQ Hydrolysis Relative to Wild Type Kumamolysin-As was 54.6 fold.

B13: Kumamolisin-As G319S, D368S (protein)
chain: B1 chain with G130S, D179S
For B13, the Fold Change in Activity of PQ Hydrolysis Relative to Wild Type Kumamolysin-As in data set [1] amounted to 2 fold.

B14: Kumamolisin-As D358G (protein)
chain: B1 chain with D169G
In data set [1], B14 came in with a Fold Change in Activity of PQ Hydrolysis Relative to Wild Type Kumamolysin-As of 3 fold.

B15: Kumamolisin-As G319S, S354N, D358G, D368H (protein)
chain: B1 chain with G130S, S165N, D169G, D179H
In data set [1], B15 displayed a Fold Change in Activity of PQ Hydrolysis Relative to Wild Type Kumamolysin-As of 5 fold.
